From US9527913B2, “Humanized pan-HER antibody compositions” (Symphogen A/S, priority 2012, dated 2016)
One block for each molecule: values may come before it.

Columns and labels:
[1] = target: T1, human HER2 (Homo sapiens, UniProt P04626); test: Kinetic binding analysis by surface plasmon resonance (ProteOn XPR36, IgG capture); conditions: Human antigen
T1 construct: against soluble antigen under monovalent conditions; purchased Sino Biologicals
Protocol: (§1) Kinetic binding analysis of the purified humanized variants was performed on a ProteOn™ XPR36 biosensor (BioRad, USA) employing an IgG capture assay as described by Canziani et al. (Anal. Biochem. (2004) 325:301-307) that allows for measurement of antibody affinities of whole IgG molecules against soluble antigen under monovalent conditions. Briefly, approximately 5000 resonance units (RU) of a monoclonal mouse anti-human IgG Fc antibody (GE Healthcare, Denmark) was conjugated to a GLC chip surface (BioRad, USA) according to the manufacturer's instructions, followed by capture of individual antibodies of the invention or a negative control on the anti-Fc sensor surface. […] Next, 250 μl monovalent antigen (Sino Biologicals) was injected at a flow rate of 50 μl/min in serial threefold dilutions from 100 nM stock to generate response curves. The chip surface was regenerated between cycles by stripping the captured antibody/antigen complexes off the surface with a 10-second injection of 3 M MgCl2 (GE Healthcare, Denmark) repeated three times. Finally, binding responses were fitted to a Langmuir 1:1 binding model for calculation of the on-rate (kon or ka), off-rate (koff or kd) and affinity (KD) constants using double referencing.

[2] = target: cynomolgus HER2; test: as above; conditions: Cynomolgus antigen
Protocol: as §1

[3] = tested on: EGFR, HER2 and HER3 from humans, cynomolgus monkeys and mice, human and murine HER4; test: Cross-reactivity ELISA with coated antigens; type: binding, mouse; conditions: OD at 450 nm, 40 nM antibody, compared to chimeric parent
Protocol: Antibody-antigen binding was measured by ELISA with coated antigens. Human antigens were obtained from Sino Biologicals. All other antigens were produced in-house by transient expression in CHO or HEK293 cells. Chimeric and humanized antibodies, as well as an isotype control antibody, were incubated with the coated antigens at different concentrations. After wash, bound antibodies were detected by HRP-(horse radish peroxidase)-conjugated secondary antibodies. The OD signal from 40 nM antibody, measured at 450 nm using an ELISA reader, was scored from negative (−; OD<0.1) to strongly positive (+++; OD>2.5).

[4] = tested on: cynomolgus HER3; test: Kinetic binding analysis by surface plasmon resonance (ProteOn XPR36, IgG capture); conditions: Cynomolgus antigen
Protocol: as §1

[5] = target: T2, human HER3 (Homo sapiens, UniProt P21860); test: as above; conditions: Human antigen
T2 construct: against soluble antigen under monovalent conditions; purchased Sino Biologicals
Protocol: as §1

[6] = tested on: A431NS, H358, FaDu, OE19, BT474, MDA-MB-175 VII, MCF-7, N87, HN5, MFE-280 cancer cell lines; test: Viability assay (WST-1) of humanized variants with partner antibody and of six-antibody mixtures; type: cell-based, human; conditions: two cell lines per variant, 96 hours
Protocol: Each humanized variant was tested in two cell lines and compared to the parental mixture of two chimeric antibodies and to a negative control antibody. […] In addition, a combination of six humanized variants (11294, 11302, 11249, 11145, 10738 and 11052; Humanized Pan-HER) was tested in a number of cell lines and compared to the combination of the six chimeric antibodies (1277, 1565, 4384, 4517, 5038 and 5082; Chimeric Pan-HER). The cell lines used, N87 gastric, FaDu head and neck, A431NS epidermoid, OE19 esophageal, HN5 head and neck, MDA-MB-175 VII breast and MFE-280 endometrial cancer, were selected on the basis of their previously determined dependency on the HER family receptors.
Prior to performing the viability assay the appropriate antibodies and antibody mixtures were diluted to a final total antibody concentration of 100 μg/ml in appropriate media supplemented with 0.5-2% FBS and 1% P/S (penicillin/streptomycin), yielding a final total antibody concentration of 50 μg/ml in the well containing the highest antibody concentration. A threefold serial dilution of the antibodies was then performed in a 384-well plate, followed by addition of relevant numbers of cells to the experimental wells. The MCF-7 cells were also stimulated with 1 nM heregulin beta. The plates were incubated for 4 days in a humidified incubator at 37° C. WST-1 reagent (Roche Applied Science, Mannheim, Germany) was added to the plates and the plates were incubated for 1-3 h at 37° C. Plates were transferred to an orbital plate shaker for one h and the absorbance was measured at 450 and 620 nm (reference wavelength) using an ELISA reader. The percentage of metabolically active cells (MAC) is calculated as a percentage of the untreated control as follows: […]

[7] = tested on: human or cynomolgus antigen (EGFR, HER2 or HER3); test: Off-rate ranking of library hits (Octet QK384, Protein G biosensors); type: binding; conditions: expression supernatant, antigen at 200 nM, dissociation 20 min
Protocol: Approximately 100 hits from each library that yielded an OD signal similar to or higher than that of the chimeric parent antibody were subjected to off-rate ranking using an Octet® QK384 instrument (Fortebio, Menlo Park, Calif.). Protein G biosensors (Fortebio) were used for capturing of antibody from 40 μl of expression supernatant followed by incubation with human or cynomolgus antigen at 200 nM. Human antigens were obtained from Sino Biologicals and cynomolgus antigens were produced in-house by transient expression in CHO or HEK293 cells (Koefoed et al. (2011) mAbs, 3:6, 1-12). Subsequently, the biosensors were incubated in PBS and the dissociation of antigen was recorded for 20 min to allow for a reliable determination of the dissociation rates. The responses were globally fitted to a Langmuir 1:1 binding model for calculation of dissociation constants.

ka [1]: 260000 M⁻¹ s⁻¹
kd [1]: 0.00029 s⁻¹
Kd [2]: 3.7 nM
ka [2]: 230000 M⁻¹ s⁻¹
kd [2]: 0.00086 s⁻¹
B1: antibody 4517: chimeric parent anti-HER2 antibody disclosed in WO 2012/059857; VH SEQ ID NO: 27, light chain SEQ ID NO: 29 (antibody)
VH: EVQLVESGGDLVKPGGSLKLSCAASGFTFSSYGMSWVRLTPDKRLEWVATISGGGSYTYYPDSVKGRFTISRDIAKSTLYLQMSSLKSEDTAVYYCARKGNYGNYGKLAYWGQGTSVTVS
light: DIQMTQSPASLSVSVGETVTITCRASENIYSNLAWYQQEQGKSPQLLVYAATNLADGVPSRFSGSGSGTQYSLKINSLQSEDFGSYYCQHFWGTPWTFGGGTKLEIKRTVAAPSVFIFPPSDEQLKSGTASVVCLLNNFYPREAKVQWKVDNALQSGNSQESVTEQDSKDSTYSLSSTLTLSKADYEKHKVYACEVTHQGLSSPVTKSFNRGEC

ka [4]: 1.5e+06 M⁻¹ s⁻¹
kd [4]: 8.7e-05 s⁻¹
ka [5]: 740000 M⁻¹ s⁻¹
kd [5]: <2e-06 s⁻¹
B2: antibody 11006: humanized anti-HER3 antibody from chimeric parent 5082; HC SEQ ID NO: 58, LC SEQ ID NO: 59 (antibody, V domains shown)
VH: QVQLQESGPGLVKPSQTLSLTCTVSGYSITSAYYWNWIRQHPGKGVEWMGYIGYSGRNTYNPSLKNRVTISRDTSKNQFSLKLSSVTAADTAVYYCSREGDYGYSDYWGQGTLVTVSS
VL: DIQMTQSPSSLSASVGDRVTVTCRASQDTNNYLNWYQQKPGKAVKLLIYYTSRLQSGVPSRFSGSGSGTDFTLTISSLQPEDFATYFCQQSETLPWTFGQGTKVEIK
cross-reactivity pattern with HER family antigens [3]: binding to the same human and cynomolgus antigen combined with lack of binding to the mouse antigen or to other EGFR family receptors
KD (estimated) ([5]; KD could not be determined due to a very slow off-rate): *KD could not be determined due to a very slow off-rate. Estimated to be in the picomolar range.
anti-proliferative effect in combination with partner antibody, compared to mixture of the two chimeric parent antibodies [6]: highly similar anti-proliferative effects
dissociation rate (off-rate ranking) compared to parent antibody [7]: improved dissociation rate
